Experimental data taken from patent US7026125, “Heterodimers of retinoid X receptors (RXRS) and other steroid hormone receptors” (Ligand Pharmaceuticals).

B1: βRARE (dsDNA)
DNA 1: GATCAGGGTTCAGGCAAAGTTCACGATC
DNA 2: GATCGTGAACTTTGCCTGAACCCTGATC
B2: TRE/OP (inverted repeat, 4 bp spacer) (dsDNA)
DNA 1: GATCCTGACCTGAGATCTCAGGTCAGGATC
DNA 2: B2 DNA 1
B3: ERE palindrome (dsDNA)
DNA 1: GATCTCAGGTCACTGTGACCTGAGATC
DNA 2: GATCTCAGGTCACAGTGACCTGAGATC
B4: TRE/half (dsDNA)
DNA 1: GATCTCAGGTCAGATC
DNA 2: GATCTGACCTGAGATC

What was measured:
Details in all cases: label: 32P
TRα/RXRα heterodimer [1] = target: T1, TRα/RXRα heterodimer (UniProt P10827-2;P19793 P10827-2:1-410,P19793:1-462); assay: EMSA; strong binding
Experimental: (§1) In vitro translated receptor protein (1 to 5 μl depending on the translation efficiency) was incubated with the ^32P-labeled oligonucleotides in a 20-μl reaction mixture containing 10 mM hepes buffer, pH 7.9, 50 mM KCl, 1 mM DTT, 2.5 mM MgCl, 10% glycerol, and 1 μg of poly(dI-dC) at 25° C. for 20 minutes. In general, relative low receptor concentration was used to obtain the clear effect of heterodimer formation. The reaction mixture was then loaded on a 5% nondenaturing ployacrylamide gel containing 0.5×TBE (1×TBE=0.089 M Tris-borate, 0.089 M boric acid, and 0.002 M EDTA). To analyze the effect of RXRα or the nuclear proteins on receptor DNA binding activity, RXRα or the cell extracts were preincubated with receptor protein at room temperature for 10 minutes before performing the DNA binding assay. When antibody was used, 1 μl of the antiserum was incubated with the specific translation products at room temperature for 45 minutes before performing the experiments described above.

TRα [2] = target: T2, TRα (UniProt P10827-2 P10827-2:1-410); assay: EMSA; no visible binding
T2 sequence: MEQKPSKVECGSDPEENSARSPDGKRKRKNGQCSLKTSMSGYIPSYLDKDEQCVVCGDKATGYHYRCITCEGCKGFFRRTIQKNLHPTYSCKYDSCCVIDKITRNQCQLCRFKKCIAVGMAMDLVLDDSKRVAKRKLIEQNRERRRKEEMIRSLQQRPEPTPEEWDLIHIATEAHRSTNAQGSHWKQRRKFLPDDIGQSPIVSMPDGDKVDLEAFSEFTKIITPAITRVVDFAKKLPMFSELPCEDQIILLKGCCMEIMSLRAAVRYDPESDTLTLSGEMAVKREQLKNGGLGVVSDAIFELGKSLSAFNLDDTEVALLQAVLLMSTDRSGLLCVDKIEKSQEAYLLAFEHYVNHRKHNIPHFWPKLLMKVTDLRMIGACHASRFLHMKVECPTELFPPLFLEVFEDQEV
Experimental: (§2) (b) Gel retardation analysis of RXRα-TRα interaction using different DNA response elements. Gel retardation assays were carried out essentially as described in FIG. 1a but using different response elements. (−) represents the binding of unprogrammed reticulocyte lysate.
as §1

RXRα = RXRα (Homo sapiens, UniProt P19793 P19793:1-462); assay: EMSA; at concentration used
Experimental: as §2, §1

TRα [3] = target: T2, TRα; assay: EMSA; one complex
Experimental: as §1

TRα/RXRα heterodimer [4] = target: T1, TRα/RXRα heterodimer; assay: EMSA; strongly enhanced and upshifted versus TRα alone
Experimental: as §1

TRα [5] = target: T2, TRα; assay: EMSA
Experimental: as §1

TRα/RXRα heterodimer [6] = target: T1, TRα/RXRα heterodimer; assay: EMSA; TRα binding abolished by RXRα
Experimental: as §1

TRα [7] = target: T2, TRα; assay: EMSA; about as efficient as palindromic TRE
Experimental: as §1

RXRα, sequence (P19793 whole entry, one chain of several): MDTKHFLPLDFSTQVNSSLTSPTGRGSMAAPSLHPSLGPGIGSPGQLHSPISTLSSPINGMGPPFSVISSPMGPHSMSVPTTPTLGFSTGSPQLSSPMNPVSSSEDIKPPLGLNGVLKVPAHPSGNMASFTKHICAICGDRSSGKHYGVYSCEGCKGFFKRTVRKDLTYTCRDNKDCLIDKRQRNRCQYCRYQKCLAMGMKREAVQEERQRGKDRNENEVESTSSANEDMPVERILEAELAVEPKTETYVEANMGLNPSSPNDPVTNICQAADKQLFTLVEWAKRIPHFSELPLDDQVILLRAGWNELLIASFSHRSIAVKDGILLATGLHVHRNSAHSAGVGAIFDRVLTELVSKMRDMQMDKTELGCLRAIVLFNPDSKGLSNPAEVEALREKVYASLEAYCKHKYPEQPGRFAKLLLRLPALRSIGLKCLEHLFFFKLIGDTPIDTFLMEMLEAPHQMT
T1 sequence (P19793 whole entry, one chain of several): as above

Binder | binding result (TRα/RXRα heterodimer [1]) | binding result (TRα [2]) | binding result (RXRα) | binding result (TRα [3]) | binding result (TRα/RXRα heterodimer [4]) | binding result (TRα [5]) | binding result (TRα/RXRα heterodimer [6]) | binding result (TRα [7])
B1 | binds | no binding | no binding | – | – | – | – | –
B2 | – | – | no binding | binds | binds | – | – | –
B3 | – | – | no binding | – | – | binds | no binding | –
B4 | – | – | no binding | – | – | – | no binding | binds
